Article PMC3678023 (Journal of Molecular Biology, 2013)

Experiments:
[1] = test system: thermostabilised SERT mutants SAH6 and SAH7; test: Competition binding, statements covering both thermostabilised mutants; design: species or system rat; settings: over SAH6 and SAH7
Description: The samples were incubated for 2 h at 30 °C and then filtered on 96-well glass fibre plates (Millipore) pre-treated with 200 μl of 0.1% polyethyleneimine. The filters were washed three times with 200 μl ice-cold SERT buffer [100 mM NaCl and 20 mM Tris (pH 7.4)], dried for 1 h at 50 °C prior to liquid scintillation counting. Competition binding assays were performed as above, but a range of concentrations of unlabelled ligand was included and a final concentration of 0.2 nM [^125I]RTI55 was used.

[2] = Description: Thermostability assays usually involved adding the radioligand to detergent-solubilised membrane proteins,[9] but the only detergent that SERT was stable in was digitonin,[34] which is unsuitable for crystallography. Therefore, a different assay where an inhibitor was used to stabilise the transporter was developed. This entailed adding [^125I]RTI55 to the T-REx-SERT cells followed by detergent solubilisation and then the thermostability assay (heating samples at various temperatures for 30 min). The apparent Tm was defined as the temperature where 50% of the transporter still bound the radiolabelled inhibitor (Fig. S2).
The thermostability of detergent-solubilised [^125I]RTI55-bound SERT was determined as previously described for GPCRs.[5,6,8,9] Briefly, cells containing unpurified SERT were incubated with 1 nM [^125I]RTI55 for 30 min on ice, which were then solubilised with detergent on ice for 30 min before incubation at varying temperatures for 30 min. The radioligand bound to the membrane protein was separated from free radioligand by centrifugal gel filtration and the radioligand bound to the eluted transporter measured by liquid scintillation counting.

[3] = test system: T-REx-293 cells expressing SAH6-GFP, SAH7-GFP or SERT-GFP; test: [3H]5HT uptake assay in stable T-REx cell lines; type: cell-based; settings: tetracycline-induced stable cell lines, 2 μM [3H]5HT, 25 °C, 3 min
Description: [^3H]5HT was released by rupturing the cells with 2% SDS, which was quantified by liquid scintillation counting.

## ibogaine
[1]
  Lower affinity versus wild-type transporter: up to 90 fold

B1: wild-type SERT: rat serotonin transporter, wild type (protein, UniProt P31652 1-630, looked up)
Sodium-dependent serotonin …: METTPLNSQKVLSECKDREDCQENGVLQKGVPTTADRAEPSQISNGYSAVPSTSAGDEASHSIPAATTTLVAEIRQGERETWGKKMDFLLSVIGYAVDLGNIWRFPYICYQNGGGAFLLPYTIMAIFGGIPLFYMELALGQYHRNGCISIWRKICPIFKGIGYAICIIAFYIASYYNTIIAWALYYLISSLTDRLPWTSCTNSWNTGNCTNYFAQDNITWTLHSTSPAEEFYLRHVLQIHQSKGLQDLGTISWQLTLCIVLIFTVIYFSIWKGVKTSGKVVWVTATFPYIVLSVLLVRGATLPGAWRGVVFYLKPNWQKLLETGVWVDAAAQIFFSLGPGFGVLLAFASYNKFNNNCYQDALVTSVVNCMTSFVSGFVIFTVLGYMAEMRNEDVSEVAKDAGPSLLFITYAEAIANMPASTFFAIIFFLMLITLGLDSTFAGLEGVITAVLDEFPHIWAKRREWFVLIVVITCVLGSLLTLTSGGAYVVTLLEEYATGPAVLTVALIEAVAVSWFYGITQFCSDVKEMLGFSPGWFWRICWVAISPLFLLFIICSFLMSPPQLRLFQYNYPHWSIVLGYCIGMSSVICIPTYIIYRLISTPGTLKERIIKSITPETPTEIPCGDIRMNAV
[2]; [125I]RTI55-bound, solubilised in 0.1% DDM, heated 30 min
  Apparent Tm: 28 °C
[2]; single-temperature assay, 28 °C for 30 min
  Transporter remaining functional after heating: approximately 40%
[3]
  [3H]5HT transport: robust transport
